Data taken from the nanobody polyreactivity screen of Harvey et al. (2022).

experiment: yeast display, Sf9 membrane polyspecificity reagent, FACS + sequencing; frameworks hold sequencing errors
How it was run: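 Using colony PCR, genes from sorted yeast display clones were amplified, then sequenced on MiSeq at 2 × 250 and filtered by CDR length. The clones had been stained with 10% biotinylated, detergent-solubilized Sf9 membrane reagent for 1 hour at 4 °C and sorted by FACS into low and high (top ~1%) gates on anti-HA and streptavidin fluorescence. Polyreactivity labels come from the gate of origin.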

Question: Which “polyreactivity (PSR sort gate)” value does the source give for “QVQLVESGGGLVQAGGSLRLSCAASGRTIRGNARGWYIQAPGKERELVAVNTASGSTTYADSVKGRFTISRDNAKNTVYLQMNSLKSEDTAVYYCAKYVPWYTLWLGGTDRDYWGQGTQVTVSS” here?
Answer: low polyreactivity

Question: For “QVQLVESGGGLVQAGGSLRLSCAASGRTIRHNAMGWYRQARGKERELVAAISRSGGSTYYADSVKGRFTISRDNAKNTVYLQMNSLKPEDTAVYYCAAGYHIIYTPEYYYWGQGTQVTVSS”, which “polyreactivity (PSR sort gate)” value is on record?
Answer: high polyreactivity

Question: With “QVQLVESGGGLVQAGGSLRLSCAASGRTIRRNARGWYRQAPGKERELVAGISGSGTITYADSVKGRVTISRDNAKNTVYLQMNSLKPEDTAVYYCAARRKSFYTFYYWGQGTKVTVSS” as the sequence, how does the “polyreactivity (PSR sort gate)” value read?
Answer: high polyreactivity

Question: Which “polyreactivity (PSR sort gate)” value does the source give for “QVQLVESGGGLVQAGGSLRLSCAASGRTIRSYAMGWYSPAPGKERELVAAITGSGGRTYYADSVKGRFTISRDNATNTVYLQMNSLKPEDTAVYYCAARLRGSYDYWGQGTQVTVSS” here?
Answer: high polyreactivity

Question: Which “polyreactivity (PSR sort gate)” value does the source give for “QVQLVESGGGLVQAGGSLRLSCAASGRTIRWYAMGWYRQAPGKERELVAAITWIGGSTYYADSVKGRFTISRDNAKNTVYLQMNSLQPEDTAVYYCATDKDDVSDLGKDYAYFEYDYWGQGTQVTVSS” here?
Answer: low polyreactivity

Question: With “QVQLVESGGGLVQAGGSLRLSCAASGRTISFYAMGWYRQAPGKERELVAAISRSGGSTYYADSVKGRFTISRDNAKNTVYLQMNSLKPEDTAVYYCAARDQYRWYKYDYWGQGTQVTVSS” as the sequence, how does the “polyreactivity (PSR sort gate)” value read?
Answer: high polyreactivity

Question: For “QVQLVESGGGLVQAGGSLRLSCAASGRTISYYAMGWYRQAPGKERELVAAITSSGSRTYYADSVKGRFTISRDNAKNTVYLQMNSLKPEDTAVYYCAAGKPYFRYDSWGQGTQVTVSS”, which “polyreactivity (PSR sort gate)” value is on record?
Answer: high polyreactivity

Question: Which “polyreactivity (PSR sort gate)” value does the source give for “QVQLVESGGGLVQAGGSLRLSCAASGRTITKYVMGWYRHAPGKERELVAAITSSGSSTYYADSVKGRFTISRDNAKNTVYLQMNSLKPEDTAVYYCAARRGAPFARQYDYWGQGTQVTVSS” here?
Answer: high polyreactivity

Question: With “QVQLVESGGGLVQAGGSLRLSCAASGRTITYYAMGWYRQAPGKERELVAAISSAGRTNYAVSVKGRFTISRDNAKNTVYLQMNCLKPEDTAVYYCAKRYGWASGYWNSNYGYLYDYWGQGTLVTVSS” as the sequence, how does the “polyreactivity (PSR sort gate)” value read?
Answer: high polyreactivity

Question: For “QVQLVESGGGLVQAGGSLRLSCAASGRTIVYNAMGWYRQAPGKESELVAAITSGGRTYYADSVKGRFTISRDNAKNTVYLQMNSVKPEDTAVYYCATDYYGPDYPLDYWGQGTQVTVSS”, which “polyreactivity (PSR sort gate)” value is on record?
Answer: low polyreactivity

Question: For “QVQLVESGGGLVQAGGSLRLSCAASGRTIWVYAMGWYRQAPGKERELVAAIRWSAGTTYYADSVKGRFTISRDNAKNTVYLQMNSLKPEDTAVYYCAADASSRYGVLEVDYWGQGTQVTVSS”, which “polyreactivity (PSR sort gate)” value is on record?
Answer: high polyreactivity

Question: With “QVQLVESGGGLVQAGGSLRLSCAASGRTIWYYAKGWYRQAPGKERELVAAITRGGRTNYADSVKGRFTISRDNAKNTVDLQMNSLKPEDTAVYYCAADYRDPAHSYGYWGQGTQVTVSS” as the sequence, how does the “polyreactivity (PSR sort gate)” value read?
Answer: high polyreactivity

Question: Which “polyreactivity (PSR sort gate)” value does the source give for “QVQLVESGGGLVQAGGSLRLSCAASGRTIWYYAMGWYRQAPGNERELVASITRSGGSTYADSVQGRFPISRDNAKNTVYLQMNSLKPQDTAVYYCAVGAVVPGLRRRTYYYWGQGTQVTVSS” here?
Answer: high polyreactivity

Question: For “QVQLVESGGGLVQAGGSLRLSCAASGRTIYSNAMGWYRQPPGKERELVAAITGSSGSTYYADSVKGRFTISRDNAKNTVYLQMNSLKPEDTAVYYCAASCYCSLVRQLRLRGQGTQVTVSS”, which “polyreactivity (PSR sort gate)” value is on record?
Answer: low polyreactivity

Question: Which “polyreactivity (PSR sort gate)” value does the source give for “QVQLVESGGGLVQAGGSLRLSCAASGRTIYYYVMGWYRQAPGKERQLVAAISASGGSTRYADSVKGRFTISRDNAKNTVYLQMNSLKPEDTAVYYCAASRRYGGYRFDYWGQGTQVTVSS” here?
Answer: high polyreactivity

Question: Which “polyreactivity (PSR sort gate)” value does the source give for “QVQLVESGGGLVQAGGSLRLSCAASGRTLAFYAMGWYRQAPGKERELVAAITRGGGTYYADSVKGRFTISRDNAKNTVDLQMNSLIPEDTAVYYCNADSGFRWGAFDYWGQGTQLTVSS” here?
Answer: low polyreactivity

Question: For “QVQLVESGGGLVQAGGSLRLSCAASGRTLAPNAMGWYRQAPGKERELVSTITRGGTTNYADSVKGRFTISRDNAKNTVYLQMNSLKPEDTAVYYCAKAHYLGYYQRYDYWGQGTQVTVSS”, which “polyreactivity (PSR sort gate)” value is on record?
Answer: low polyreactivity

Question: Which “polyreactivity (PSR sort gate)” value does the source give for “QVQLVESGGGLVQAGGSLRLSCAASGRTLDGNDMGWYRQPPGKERELVAAITVTGSSTYYADSVKGRFTISRDNAKNTVYLQMNSLKPEDTAVYYCAKASGGDVRYSYSYRMDYWGQGTQVTVSS” here?
Answer: low polyreactivity

Question: With “QVQLVESGGGLVQAGGSLRLSCAASGRTLDHYAMGWYRQAPGKERELVAAITSSGGSTYYADSVKGRFTISRDNAKNTVYLQMNSLKPEETAVSYCAADVSSQREWIIEHDYWGQGTQVTVSS” as the sequence, how does the “polyreactivity (PSR sort gate)” value read?
Answer: low polyreactivity

Question: With “QVQLVESGGGLVQAGGSLRLSCAASGRTLDRYAMGWYSPAPGKERELVAAIRWSTGSTYYADSVKGRFTISRDNAKNTVYLQMNSLKPEDTAVYYCAAELSYWWYFAMDYWGQGTQVTVSS” as the sequence, how does the “polyreactivity (PSR sort gate)” value read?
Answer: high polyreactivity

Question: Which “polyreactivity (PSR sort gate)” value does the source give for “QVQLVESGGGLVQAGGSLRLSCAASGRTLDWNAMGWYRQAPGKERELVAAISWSGDSTYYADSVKGRFTISRDNAKNTVYLQMNSLKPEDTAVYYCAARYGRSWGRGYGYWGQGTQVTVSS” here?
Answer: low polyreactivity

Question: For “QVQLVESGGGLVQAGGSLRLSCAASGRTLDWNAMGWYRQAPGKERELVAAISWSGDSTYYADSVKGRFTISRDNAKNTVYLQMNSLKPEDTAVYYCDARYGRSWGRGYGYWGQGTQVTVSS”, which “polyreactivity (PSR sort gate)” value is on record?
Answer: low polyreactivity

Question: Which “polyreactivity (PSR sort gate)” value does the source give for “QVQLVESGGGLVQAGGSLRLSCAASGRTLEHNAMGWYRQAPGKERELVAAISGSGGTTYYADSVKGRFTISRDNAKNTVYLQMNSLKPEDTAVYYCNAKLYRSFDYWGQGTQVTVSS” here?
Answer: low polyreactivity

Question: Which “polyreactivity (PSR sort gate)” value does the source give for “QVQLVESGGGLVQAGGSLRLSCAASGRTLEQYAMGWYRQAPRKERELVAAINKSGARTYYADSVKGRFTISRDNAKNSVYLQMNSQKPEDTAVYYCNTVGPSYLFDYWGQGTQVTVSS” here?
Answer: high polyreactivity

Question: Which “polyreactivity (PSR sort gate)” value does the source give for “QVQLVESGGGLVQAGGSLRLSCAASGRTLGLYAMGWYRQAPGKERELVAAITTSGGSTSYADSVKGRFTISRDNAKNTVYLQMNSLKPEDTAVYYCAARYLSYITGTSYYWGQGTQVTVSS” here?
Answer: low polyreactivity

Question: For “QVQLVESGGGLVQAGGSLRLSCAASGRTLGPNAMGWYRQAPGKERELVAAISWSGGSTYYADSVKGRFTISRDNAKNTVYLQMNSLKPEDTAVYYCAAEWYWVYYVPYEYWGQGTQVTVSS”, which “polyreactivity (PSR sort gate)” value is on record?
Answer: low polyreactivity

Question: Which “polyreactivity (PSR sort gate)” value does the source give for “QVQLVESGGGLVQAGGSLRLSCAASGRTLGRNAMGWYRQAPGKVRELVASISSGGSTNYAYSVKGSFTISRDNAKNTVYLQMNSQKPEDTEVYYCNKRYRSLYSSGYDYWGQVTQVTVSS” here?
Answer: high polyreactivity

Question: For “QVQLVESGGGLVQAGGSLRLSCAASGRTLGRYAMGWYRHAPGKERELVADISFRGGSTYYADSVKGRFTISRDNAKNTVYLQMNSLKPVDTAVYYCAAVPGPASKYGYWGQGTQVTVSS”, which “polyreactivity (PSR sort gate)” value is on record?
Answer: high polyreactivity

Question: For “QVQLVESGGGLVQAGGSLRLSCAASGRTLGVYAMGWSRQAPGKERELVAAIRYRGGITYYADSVKGRFTISRDNAKNTVYLQMNSLKPEDTAVYYCAADWAWDTKSAPAYPRAYDYWGQGTQVTVSS”, which “polyreactivity (PSR sort gate)” value is on record?
Answer: low polyreactivity

Question: With “QVQLVESGGGLVQAGGSLRLSCAASGRTLGYYAMGWYRQAPGKERELVAAITSRTGTTYYADSVKGRFTISRDNAKNTVFLQMNSLKPEDTAVYYCNAAYYSTVLGWYLEYDYWGQGTQVTVSS” as the sequence, how does the “polyreactivity (PSR sort gate)” value read?
Answer: high polyreactivity

Question: For “QVQLVESGGGLVQAGGSLRLSCAASGRTLHDYTMGWYRQSPGKERELVAGITSGGRTNYADSVKGRFTISRDNAKNTVYLQMNSLKPEDTADYYCAAAWTWWRLYAVDYWGQGTQVTVSS”, which “polyreactivity (PSR sort gate)” value is on record?
Answer: high polyreactivity

Question: With “QVQLVESGGGLVQAGGSLRLSCAASGRTLHYYAMGWYRQAPGKERELVARINWSGGSTYYADSVKGRFTISRDNAKNTVYLQMNCLKPEDTAVYYCARTSYYWSSFDYWGQGTQVTVSS” as the sequence, how does the “polyreactivity (PSR sort gate)” value read?
Answer: high polyreactivity

Question: For “QVQLVESGGGLVQAGGSLRLSCAASGRTLKRNAMGWYRQAPGKERELVAAISFRVTNTYYADSVKGRFTISRDNAKNTVYLQMNSLKPEDTAVYYCAVPDSRFYSPRRVSPHDYWGQGTQVTVSS”, which “polyreactivity (PSR sort gate)” value is on record?
Answer: high polyreactivity

Question: With “QVQLVESGGGLVQAGGSLRLSCAASGRTLKYNPMGWYRQAPGKERELVAAISRSGGRTYYADSVKGRFTIARDIAKYSVYSQINSLKPEDTAVYYCARESSYYKYYYWGQGTQVTLSS” as the sequence, how does the “polyreactivity (PSR sort gate)” value read?
Answer: high polyreactivity

Question: Which “polyreactivity (PSR sort gate)” value does the source give for “QVQLVESGGGLVQAGGSLRLSCAASGRTLLPNAMGWYRPAPGKERELVADISTSDGSTRYADSVKGRFTISRDNAKNTVYLQMNSLKPEDTAVYYCAAGSEYYSYGGVRFSFYYWGQGTQVTVSS” here?
Answer: low polyreactivity

Question: Which “polyreactivity (PSR sort gate)” value does the source give for “QVQLVESGGGLVQAGGSLRLSCAASGRTLNTYTMGWYRQAPGKERELVAAITWRGGRTYYADSVKRRFTISRDYAKNTVYLQMNSLKPEDTAVYYCAAVRRNKPVGYGYWGQGTQVTVSS” here?
Answer: high polyreactivity

Question: Which “polyreactivity (PSR sort gate)” value does the source give for “QVQLVESGGGLVQAGGSLRLSCAASGRTLPAYAMGWYRQAPGKERELVAAISWGGGSTYYADSVKGRFTISRDNAKKTVYLQMNSLKPEDTAVYYCAVAGYWFAVAEYDYWGQGTQVTVSS” here?
Answer: low polyreactivity

Question: For “QVQLVESGGGLVQAGGSLRLSCAASGRTLPEYGMGWSRQAPGKEREFVAAISTRGGSTYYANSVKGRFTISRDNAKNTVYLQMNSLKPEDTAVYYCAKVYDRSCGDYWGQGTQVTVSS”, which “polyreactivity (PSR sort gate)” value is on record?
Answer: low polyreactivity

Question: For “QVQLVESGGGLVQAGGSLRLSCAASGRTLQGYAMGWYSQAPGKERELVAAISRGGGSTYADSVKGRFTISRDNAKNTVYLQMNSLKPEDTAVYYCAAVRGIYGGHYFRYDYWGQGTQVTVSS”, which “polyreactivity (PSR sort gate)” value is on record?
Answer: high polyreactivity

Question: With “QVQLVESGGGLVQAGGSLRLSCAASGRTLRRNAMGWYRQAPGKERELVAAITWSGTSTYYADSVKGRFTISRDNAKNTVDLQMNSLKPEDTAVYYCAAEVAYTDTEYFWYYYWGQGTQVTVSS” as the sequence, how does the “polyreactivity (PSR sort gate)” value read?
Answer: high polyreactivity

Question: With “QVQLVESGGGLVQAGGSLRLSCAASGRTLSHYAMGWYRQAPGKERELVAAITRSGGSTYYADSVKGRFTISRDYAKNTVYLQMNSLKPEDTAVYYCNKTLYTTYDYWGQGTQVTVSS” as the sequence, how does the “polyreactivity (PSR sort gate)” value read?
Answer: low polyreactivity

Question: With “QVQLVESGGGLVQAGGSLRLSCAASGRTLSVYAMGWYRQAPGKERELVAAITIRGGRTYYADSVKGRFTISRDNAKNTVYLQMNSLKPEDTAVYYCAAPPYVKMDYWGQGTQVTVSS” as the sequence, how does the “polyreactivity (PSR sort gate)” value read?
Answer: high polyreactivity

Question: With “QVQLVESGGGLVQAGGSLRLSCAASGRTLSYYAMGWYRQAPGKEREFVAAITGSGGSTYYADSVKGRFTISRDNAKYTVYLQMNSLKPEDTAVYYCNAKGLGVFTVEYYYWGQGTQVTVSS” as the sequence, how does the “polyreactivity (PSR sort gate)” value read?
Answer: low polyreactivity
